Matrigel transwell invasion of co-transfected MDA-MB-231 cells with ACH (AP21967), towards CCL19 and CXCL12 together data for one substance are collected here from PMC8538406.

This assay deals with CCR7-FKBP (DmrA) receptor chimaera, CCR7-M.

The substance “CXCR4-FRB (DmrC) receptor chimaera, CXCR4-H” yielded a Matrigel transwell invasion of co-transfected MDA-MB-231 cells with ACH (AP21967), towards CCL19 and CXCL12 together of more than 50%.
